Test results from patent US20240199746A1 (published 2024).
Residue numbers refer to the chain shown, from its start.

T1: Ax1 protein, extracellular domain (human, UniProt P30530 26-451)
T1 construct: extracellular domain; also called Axl; Ark
T1 sequence (looked up): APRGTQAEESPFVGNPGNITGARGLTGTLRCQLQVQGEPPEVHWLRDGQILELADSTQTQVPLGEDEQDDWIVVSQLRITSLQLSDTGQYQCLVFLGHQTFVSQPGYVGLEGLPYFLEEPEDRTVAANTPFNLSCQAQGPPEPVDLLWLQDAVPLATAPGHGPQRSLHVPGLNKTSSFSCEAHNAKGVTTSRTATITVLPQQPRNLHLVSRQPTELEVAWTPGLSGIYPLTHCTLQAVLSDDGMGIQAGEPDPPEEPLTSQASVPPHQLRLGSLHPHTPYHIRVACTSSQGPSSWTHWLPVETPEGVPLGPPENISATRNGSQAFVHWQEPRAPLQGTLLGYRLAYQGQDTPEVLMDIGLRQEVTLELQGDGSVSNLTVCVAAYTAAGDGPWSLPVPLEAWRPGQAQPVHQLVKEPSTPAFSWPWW

B1: LC-A051P (antibody, V domains shown)
VH: EVQLVQSGAEVKKPGATVKISCKVSGYSFTGHTMNWIRQPPGKGLEWIGLIKPSNGGTSYNQKFKGRVTISADKSISTAYLQWSSLKASDTAMYYCAHGHYESYFAMDYWGQGTLVTVSS
VL: DIQMTQSPSSLSASVGDRVTITCKASQDVSSAVAWYQQKPGQAPRLLIYWPSTRHTGVPSRFSGSGSGTEFTLTISSLQPDDFATYYCQEHFSTPLTFGQGTKVEIK
notes: CPE single point mutant
B2: LC-F092N (antibody, V domains shown)
VH: B1 VH
VL: B1 VL with P51A, F92N
notes: CPE single point mutant
B3: LC-F092D (antibody, V domains shown)
VH: B1 VH
VL: B1 VL with P51A, F92D
notes: CPE single point mutant
B4: LC-P095C (antibody, V domains shown)
VH: B1 VH
VL: B1 VL with P51A, P95C
notes: CPE single point mutant
B5: LC-F092C (antibody, V domains shown)
VH: B1 VH
VL: B1 VL with P51A, F92C
notes: CPE single point mutant
B6: LC-H091Y (antibody, V domains shown)
VH: B1 VH
VL: B1 VL with P51A, H91Y
notes: CPE single point mutant
B7: LC-H091S (antibody, V domains shown)
VH: B1 VH
VL: B1 VL with P51A, H91S
notes: CPE single point mutant
B8: LC-P095D (antibody, V domains shown)
VH: B1 VH
VL: B1 VL with P51A, P95D
notes: CPE single point mutant
B9: LC-P095K (antibody, V domains shown)
VH: B1 VH
VL: B1 VL with P51A, P95K
notes: CPE single point mutant
B10: LC-P095H (antibody, V domains shown)
VH: B1 VH
VL: B1 VL with P51A, P95H
notes: CPE single point mutant
B11: LC-P095S (antibody, V domains shown)
VH: B1 VH
VL: B1 VL with P51A, P95S
notes: CPE single point mutant
B12: LC-F092S (antibody, V domains shown)
VH: B1 VH
VL: B1 VL with P51A, F92S
notes: CPE single point mutant
B13: LC-H091C (antibody, V domains shown)
VH: B1 VH
VL: B1 VL with P51A, H91C
notes: CPE single point mutant
B14: LC-P095W (antibody, V domains shown)
VH: B1 VH
VL: B1 VL with P51A, P95W
notes: CPE single point mutant
B15: LC-H091L (antibody, V domains shown)
VH: B1 VH
VL: B1 VL with P51A, H91L
notes: CPE single point mutant
B16: LC-T097I (antibody, V domains shown)
VH: B1 VH
VL: B1 VL with P51A, T97I
notes: CPE single point mutant
B17: LC-H091T (antibody, V domains shown)
VH: B1 VH
VL: B1 VL with P51A, H91T
notes: CPE single point mutant
B18: LC-H091V (antibody, V domains shown)
VH: B1 VH
VL: B1 VL with P51A, H91V
notes: CPE single point mutant
B19: LC-P095T (antibody, V domains shown)
VH: B1 VH
VL: B1 VL with P51A, P95T
notes: CPE single point mutant
B20: LC-P095A (antibody, V domains shown)
VH: B1 VH
VL: B1 VL with P51A, P95A
notes: CPE single point mutant
B21: LC-F092E (antibody, V domains shown)
VH: B1 VH
VL: B1 VL with P51A, F92E
notes: CPE single point mutant
B22: LC-P095E (antibody, V domains shown)
VH: B1 VH
VL: B1 VL with P51A, P95E
notes: CPE single point mutant
B23: LC-F092G (antibody, V domains shown)
VH: B1 VH
VL: B1 VL with P51A, F92G
notes: CPE single point mutant
B24: LC-P095V (antibody, V domains shown)
VH: B1 VH
VL: B1 VL with P51A, P95V
notes: CPE single point mutant

Molecular target: T1, Ax1 protein, extracellular domain
Assay: ELISA, mutant diluted 1:3
Description: (§1) The DNA encoding the wild-type antibody was evolved to generate a mutant antibody library using Comprehensive Positional Evolution (CPE), which each position in the template antibody is randomized one at a time. Each mutant antibody in the library has only one single point mutation. The mutant antibodies in the library were generated by simultaneously screening for selective binding affinity to Ax1 at pH 6.0 over pH 7.4 by ELISA. Two mutant antibody dilutions were used: 1:3 and 1:9 dilutions.

In order of rising “Affinity ELISA CPE mutant ratio (1:3, pH 6.0/7.4)” value:
1. B7  1.76
2. B21  1.76
3. B24  1.87
4. B1  1.92
5. B2  1.93
6. B14  2.15
7. B15  2.17
8. B4  2.35
9. B10  2.5
10. B19  2.5
11. B20  2.52
12. B11  2.84
13. B3  2.97
14. B16  3.09
15. B12  3.18
16. B23  3.69
17. B17  3.78
18. B9  3.84
19. B5  3.86
20. B6  3.93
21. B8  3.95
22. B13  4
23. B18  4.13
24. B22  7.12

Molecular target: T1, Ax1 protein, extracellular domain
Assay: ELISA, mutant diluted 1:9
Description: as §1

In order of rising “Affinity ELISA CPE mutant ratio (1:9, pH 6.0/7.4)” value:
1. B18  1.17
2. B7  1.34
3. B1  1.57
4. B2  2
5. B21  2
6. B19  2.09
7. B24  2.13
8. B14  2.26
9. B15  2.44
10. B4  2.63
11. B10  2.75
12. B8  2.89
13. B3  2.94
14. B12  2.94
15. B20  2.99
16. B13  3.02
17. B9  3.47
18. B11  3.51
19. B17  3.7
20. B16  4.05
21. B5  4.58
22. B23  4.76
23. B6  5.13
24. B22  7.51
